Source: US20070178531A1 (BIOCHECK, published 2007)

T1: Human Id1: Histidine (human, UniProt P41134 1-155, limits assumed)
T1 construct: Fusion protein made in E. coli from vector pGW07; also called h-Id1: his; not shown: His tag
T1 sequence (looked up): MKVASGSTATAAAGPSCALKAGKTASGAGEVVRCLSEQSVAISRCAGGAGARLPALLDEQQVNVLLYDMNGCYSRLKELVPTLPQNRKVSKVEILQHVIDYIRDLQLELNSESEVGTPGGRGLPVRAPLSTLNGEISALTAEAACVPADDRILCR

T2: Human Id3: Histidine (human, UniProt Q02535 1-119 at identity 1.00))
T2 construct: Fusion protein made in E. coli from vector pGW07; also called h-Id3: His; Human Id3 (coated wells); not shown: His tag
T2 chain: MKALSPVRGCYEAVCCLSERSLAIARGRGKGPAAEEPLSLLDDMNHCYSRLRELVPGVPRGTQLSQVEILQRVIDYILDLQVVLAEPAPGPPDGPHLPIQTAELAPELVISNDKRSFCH

T3: Mouse Id3: Histidine (mouse, UniProt P41133 1-119)
T3 construct: Fusion protein made in E. coli from vector pGW07; also called m-Id3: His; Mouse Id3 (coated wells); not shown: His tag
T3 sequence: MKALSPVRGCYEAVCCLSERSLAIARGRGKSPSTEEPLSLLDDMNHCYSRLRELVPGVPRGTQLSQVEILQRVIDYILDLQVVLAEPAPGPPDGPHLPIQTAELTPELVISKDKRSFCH

T4: Mouse Id2: Histidine (mouse, UniProt P41136 1-134, limits assumed)
T4 construct: Fusion protein made in E. coli from vector pGW07; also called m-Id2: His; not shown: His tag
T4 sequence (looked up): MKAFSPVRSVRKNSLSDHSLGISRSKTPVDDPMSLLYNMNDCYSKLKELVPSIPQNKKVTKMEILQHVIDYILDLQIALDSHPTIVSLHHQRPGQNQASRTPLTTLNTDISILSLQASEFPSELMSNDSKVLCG

T5: Mouse Id1: Histidine (mouse, UniProt P20067-2 1-148, limits assumed)
T5 construct: Fusion protein made in E. coli from vector pGW07; also called m-Id1-His; not shown: His tag
T5 sequence (looked up): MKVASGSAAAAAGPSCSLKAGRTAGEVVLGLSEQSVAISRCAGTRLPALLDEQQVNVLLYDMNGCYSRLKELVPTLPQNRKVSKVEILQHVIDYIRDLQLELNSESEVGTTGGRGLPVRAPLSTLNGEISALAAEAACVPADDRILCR

T6: Human Id2: Histidine (human, UniProt Q02363 1-134, limits assumed)
T6 construct: Fusion protein made in E. coli from vector pGW07; also called h-Id2: His; not shown: His tag
T6 sequence (looked up): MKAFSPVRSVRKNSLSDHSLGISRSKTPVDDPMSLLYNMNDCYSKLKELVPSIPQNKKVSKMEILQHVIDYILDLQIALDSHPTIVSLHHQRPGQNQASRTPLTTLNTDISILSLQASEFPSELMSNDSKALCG

B1: rabbit monoclonal anti-mouse/human Id3, clone #BCH-4/#16-1 (antibody, V domains shown)
VH: QSVEESGGRLVTPGTPLTLTCTASGFSLSSYYIHWVRQAPGKALEWIGYISDGGTTYYASWAKGRFTISKTSSTTVDLKMTSLTTEDTATYFCARQGFNIWGPGTLVTVSL
VL: AVLTQTPSPVSAAVGGTVTISCQSSQSVYNNNWLSWFQQKSGQPPKLLIYETSKLESGVPSRFKGSGSGTQFTLTIIDVQCDDAATYYCLGGYWTTSDNNIFGGGTEVVVK
notes: Rabbit IgG from a rabbit hybridoma; also called m/h Id3 MoAb 16-1
B2: rabbit monoclonal anti-mouse/human Id3, clone #BCH-4/#17-3 (antibody, V domains shown)
VH: QSVEESGGRLVTPGTPLTLTCTASGFSLSNVYIHWVRQAPGKGLEWIGYISDGDTARYATWAKGRFTISKTSSTTVNLKMTSLTTEDTATYFCARQGFNIWGPGTLVTVSL
VL: AVLTQTPSPVSAAVGGTVSISCQSSQSVWNNNWLSWFQQKPGQPPKLLIYETSKLESGVPSRFKGSGSGTQFTLTISDVQCDDAATYYCLGGYWTTSDNNVFGGGTEVVVK
notes: Rabbit IgG from a rabbit hybridoma; also called m/h Id3 MoAb 17-3; BCH-3/#17-3
B3: rabbit monoclonal anti-mouse/human Id3, clone #BCH-4/#6-1 (antibody, V domains shown)
VH: QSVEESGGRLVTPGTPLTLTCTASGFSLSNVYIHWVRQAPGKGLEWIGYISDGDTARYATWAKGRFTISKTSSTTVNLKMTSLTTEDTATYFCARQGFNIWGPGTLVTVSL
VL: AVLTQTPSPVSAAVGGTVSISCQSSQSVWNNNWLSWFQQKPGQPPKLLIYETSKLESGVPSRFKGSGSGTQFTLTISDVQCDDAATYYCLGGYWTTSDNNVFGGGTEVVVK
notes: Rabbit IgG from a rabbit hybridoma; also called m/h Id3 MoAb 6-1
B4: rabbit monoclonal anti-mouse/human Id3, clone #BCH-4/#42-1 (antibody, V domains shown)
VH: QSVEESGGRLVTPGTPLTLTCTASGFSLSSYYIHWVRQAPGKALEWIGYISDGGTTYYASWAKGRFTISKTSSTTVDLKMTSLTTEDTATYFCARQGFNIWGPGTLVTVSL
VL: AVLTQTPSPVSAAVGGTVTISCQSSQSVYNNNWLSWFQQKSGQPPKLLIYETSKLESGVPSRFKGSGSGTQFTLTIIDVQCDDAATYYCLGGYWSTSDNNIFGGGTEVVVK
notes: Rabbit IgG from a rabbit hybridoma; also called m/h Id3 MoAb 42-1
B5: rabbit monoclonal anti-human Id3, clone #BCH-4/#3-3 (antibody, V domains shown)
VH: QSVEESGGRLVTPGTPLTLTCTVSGIDLSSYAMSWVRQAPGKGLEWIGVIFPSNNVYYASWAKGRFTISKTSTTVDLKITSPTTEDTATYFCASMGAFDSWGPGTLVTVSS
VL: QVLTQTPSPVSAAVGGTVTINCQASQSIYNDNDLAWFQQKPGQPPKLLIYDASTLTSGVPSRFKGSGSGTQFTLTISDLDCDDAATYYCAARYSGNIYGFGGGTEVVVK
notes: Rabbit IgG from a rabbit hybridoma; also called h Id3 MoAb 3-3

How the values were obtained:
[1] = biological target: T1, Human Id1: Histidine; assay: ELISA, Ab 0.010 µg/ml
Procedure: (§1) The rabbit monoclonal anti-human Id3 (clone #3-3) and the rabbit monoclonal anti-mouse/human Id3 (clones #6-1, 16-1, 17-3, and 42-1) produced in Example 6 were tested reactivity against the following antigens: mouse Id1:His, human Id1:His, mouse Id2:His, human Id2:His, mouse Id3:His, human Id3:His, mouse Id4:His, human Id4:His and GST.
(§2) 1. Microtiter wells (prepared in accordance with Example 6) were coated (0.1 μg/well) with mouse Id1:His, human Id1:His, human Id2:His, human Id3:His, and 1.0 μg/well with GST. [0155] 2. Antibody Diluent: 0.25% (w/v) BSA in 0.015M KPO₄ Buffer, 0.85% (w/v) NaCl, 0.1% (w/v) NaN₃, pH=7.40 [0156] 3. Rabbit monoclonal anti-human Id3 (clone #3-3) prepared in Example 7 was diluted to […] with the antibody diluent. […] 4. Rabbit monoclonal anti-mouse/human Id3 (clones #6-1, 16-1, 17-3, 42-1) prepared in Example 7 was diluted to 0.005, 0.010, 0.025, 0.05, 0.10, 0.25, and 0.50 μg/ml with the antibody diluent. […] 5. Conjugate Diluent: 50% (v/v) which consists of an aqueous solution containing Fetal Bovine Serum in 0.05 M Tris, 1% (v/v) Proclin-300, pH 7.6. [0159] 6. Conjugate: Goat anti-rabbit IgG (H+L)-HRP conjugate. [0160] 7. TMB reagent. […] 8. Stop solution (1 N HCI). Method
(§3) 1. Dispense 100 μL of antibody diluent, diluted rabbit monoclonal human Id3, and mouse/human Id3 hybridoma supernatants into appropriate wells. […] 2. Incubate at room temperature with mechanical shaking at 750 rpm for 90 minutes. [0165] 3. Remove the incubation mixture by flicking plate content into an appropriate waste container followed by rinsing the wells 5 times with distilled water. [0166] 4. Strike the wells sharply onto absorbent paper or paper towels to remove all residual water droplets. [0167] 5. Dispense 100 μL of 1:50,000 Goat Anti-Rabbit IgG-HRP Conjugate Reagent into each well. Gently mix for 5 seconds. [0168] 6. Incubate at room temperature with mechanical shaking at 750 rpm for 90 minutes. [0169] 7. Repeat procedures 3 and 4. [0170] 8. Dispense 100 μL of TMB Reagent into each well. Gently mix for 5 seconds. [0171] 9. Incubate at room temperature with mechanical shaking at 750 rpm for 20 minutes. […] 10.

[2] = biological target: T2, Human Id3: Histidine; assay: ELISA, Ab 0.010 µg/ml
Procedure: as §1, §2, §3

[3] = biological target: T3, Mouse Id3: Histidine; assay: ELISA, Ab 0.010 µg/ml
Procedure: as §1, §2, §3

[4] = biological target: T4, Mouse Id2: Histidine; assay: ELISA, Ab 0.010 µg/ml
Procedure: as §1, §2, §3

[5] = biological target: T5, Mouse Id1: Histidine; assay: ELISA, Ab 0.010 µg/ml
Procedure: as §1, §2, §3

[6] = biological target: T1, Human Id1: Histidine; assay: ELISA, Ab 0.050 µg/ml
Procedure: as §1, §2, §3

[7] = biological target: T2, Human Id3: Histidine; assay: ELISA, Ab 0.050 µg/ml
Procedure: as §1, §2, §3

[8] = biological target: T6, Human Id2: Histidine; assay: ELISA, Ab 0.050 µg/ml
Procedure: as §1, §2, §3

[9] = biological target: T3, Mouse Id3: Histidine; assay: ELISA, Ab 0.050 µg/ml
Procedure: as §1, §2, §3

[10] = biological target: T4, Mouse Id2: Histidine; assay: ELISA, Ab 0.050 µg/ml
Procedure: as §1, §2, §3

[11] = biological target: T5, Mouse Id1: Histidine; assay: ELISA, Ab 0.050 µg/ml
Procedure: as §1, §2, §3

| Binder | A450 [1] [A450] | A450 [2] [A450] | A450 [3] [A450] | A450 [4] [A450] | A450 [5] [A450] | A450 [6] [A450] | A450 [7] [A450] | A450 [8] [A450] | A450 [9] [A450] | A450 [10] [A450] | A450 [11] [A450] |
| --- | --- | --- | --- | --- | --- | --- | --- | --- | --- | --- | --- |
| B1 | 0.042 | 0.391 | 0.432 | 0.049 | 0.05 | 0.047 | 1.4 | 0.044 | 1.57 | 0.051 | 0.044 |
| B2 | 0.046 | 0.581 | 0.69 | 0.048 | 0.047 | 0.044 | 1.8 | 0.049 | 2.19 | 0.054 | 0.048 |
| B3 | 0.049 | 0.491 | 0.539 | 0.048 | 0.044 | 0.052 | 1.61 | 0.046 | 1.75 | 0.051 | 0.046 |
| B4 | 0.045 | 0.713 | 0.756 | 0.05 | 0.043 | 0.045 | 2 | 0.047 | 2.23 | 0.051 | 0.05 |
| B5 | 0.046 | – | – | 0.045 | 0.047 | 0.05 | – | 0.048 | – | 0.048 | 0.049 |
